Seven molecules from patent US10337022B2, “Methods of increasing root biomass in plants” (Agresearch Limited, priority 2014, dated 2019) can be followed below.

The target in assay [1] is T1, BZR1 (Arabidopsis thaliana, UniProt Q8S307).
T1 construct: expressed in transfected cells; host or cells: Nicotiana benthamiana leaves (Agrobacterium infiltration)
T1 sequence (Q8S307 1-336): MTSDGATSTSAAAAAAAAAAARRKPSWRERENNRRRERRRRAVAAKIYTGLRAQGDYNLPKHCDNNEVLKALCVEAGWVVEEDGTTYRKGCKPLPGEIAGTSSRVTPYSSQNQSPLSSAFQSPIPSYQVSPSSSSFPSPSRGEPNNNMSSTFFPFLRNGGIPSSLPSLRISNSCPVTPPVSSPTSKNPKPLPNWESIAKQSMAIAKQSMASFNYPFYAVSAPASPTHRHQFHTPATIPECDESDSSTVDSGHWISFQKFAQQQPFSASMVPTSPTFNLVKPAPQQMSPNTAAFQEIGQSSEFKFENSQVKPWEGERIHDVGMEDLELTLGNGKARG
The assay is described as follows: BiFC interaction with BZR1 in Nicotiana benthamiana leaves. The assay is classed as cell-based. The conditions noted are these: fully expanded leaves, co-expressed with cYFP-BZR1. From the text:
The binary BiFC-Gateway YFP vectors pDEST-VYNE(R)^GW (Venus aa 1-173) and pDEST-VYCE(R)^GW (Venus aa 156-239) with N-terminal fusions, were used to construct the following vectors; pDESTnYFP-BZR1, pDESTnYFP-NINJA, pDESTnYFP-PPD1, pDESTcYFP-BZR1, pDESTcYFP-PPD1, pDESTcYFP-PPD1Δppd, pDESTcYFP-PPD1Δtify and pDESTcYFP-PPD1Δjas*. […] Plasmids for co-immunoprecipitation: A synthesised DNA construct encoding PPD1 with a 3×c-myc C-terminal fusion was sub-cloned into pRSh1 to produce pRSh1-PPD1-3×c-myc, while the NINJA cDNA sequence was sub-cloned into pB7FWG2,0 (Karimi et al 2002, Trends Plant Sci. 7, 193-195) to construct pB7FWG2-NINJA-GFP.
For infiltration Agrobacterium tumefaciens GV3101 strains containing the binary vectors were re-suspended from plates and prepared for transformation as described for the LUC assay. All YFP and expression strains were mixed in ratios of 1:1 (vol/vol) with the addition of strain P19 at 1/10th volume. Five leaf discs were sampled from each infiltrated leaf after 40 h. Two hours prior to sampling for microscopic fluorescence observations leaves were infiltrated with a 1 μg/ml DAPI solution to stain nuclei. YFP fluorescence and DAPI staining was detected using an Olympus Fluoview FV10i confocal laser scanning microscope. Each experiment was repeated twice.

Assay [2] has as its system Wild-type (Col-0), Δppd mutant and transgenic PPD-OX seedlings. The assay is described as follows: Hypocotyl length response to exogenous GA or PAC. The assay is classed as in vivo, Arabidopsis. From the text: Giberellic acid (GA) treatment is known to reduce levels of the DELLA proteins (including RGA1) which are GA repressors; to determine the relationship between PPD, DELLA and the GA signalling pathway the applicants performed a yeast two-hybrid (Y2H) analysis between PPD and DELLA (RGA1) and applied gibberellic acid (GA) hormone and GA biosynthesis inhibitor (paclobutrazol, PAC) to wild type, Δppd mutant, and the Δppd mutant PPD over expressor (PPD-OX).
For exogenous applications of GA or PAC seeds were surface sterilised with 70% ethanol, 0.01% Triton X-100 for 10 min, followed by 100% ethanol for 5 min, air dried on sterile filter paper, and transferred to media plates containing half-strength MS salts, 1% sucrose and 0.8% agar. Plates were incubated for 5 days at 4° C. in the dark then transferred to 24° C. with a 14 h light/10 h dark daily cycle. Light was provided by fluorescent tubes (Philips TLD 58W/865) at an intensity of 100 μM m^−2 s^−1. Wild-type (Col-0) Δppd mutant and transgenic PPD-OX seedlings were grown for five days on medium with different concentrations of GA (FIG. 10A) or PAC (FIG. 10B). GA (ACROS organics), and PAC (Sigma-Aldrich) were dissolved in ethanol and acetone respectively, filter sterilised and incorporated into media plates. Ethanol or acetone (0.5%) was used for mock treatments. Seedlings were grown at 24° C. under a 14 h light/10 h dark daily cycle for 5 days before hypocotyl lengths were analysed (n=35). Each treatment was repeated twice; error bars=standard error of the mean.

The test system of assay [3] is PEAPOD deletion mutant Δppd Arabidopsis thaliana ecotype Landsberg erecta. Description: Complementation of the Arabidopsis Δppd mutant leaf phenotype. The conditions noted are these: optimized PEAPOD coding sequence under CaMV35s promoter, seedlings (FIG. 13). The assay is classed as in vivo. From the text:
The functionality of any PEAPOD sequence can be confirmed by complementation of the Arabidopsis Δppd mutant leaf phenotype. Complementation of the Arabidopsis Δppd mutant leaf phenotype was first used to identify the Arabidopsis PPD gene (White 2006). This was seen by a restoration of the wild type flattened leaf phenotype and normal rosette shape as opposed to the domed leaf and the twisting of the rosette to a “propeller” phenotype.
Constructs above can be transformed into Arabidopsis by the floral dip infiltration method (Clough and Bent, 1998 Plant J 16, 735-43). The Δppd line is transformed to express the PPD polypeptides by standard techniques. Transgenic plants are confirmed by standard PCR analysis techniques with a combination of transgene-specific and T-DNA primers.
Complementation of the Δppd line to produce a wild-type leaf and rosette phenotype in T1 seedlings (the off-spring of the infiltrated plant) confirms PEAPOD functionality of the introduced gene, which can be shown in photographs.

The test system of assay [4] is ryegrass plants. Description: Root biomass analysis of ryegrass transformants. The assay is classed as in vivo. The conditions noted are these: approximately 6 weeks in glasshouse. How it is done:
An equal number (typically 4-10) of tillers were taken from WT and ryegrass plants transformed with Arabidopsis PPD under a constitutive promoter. Tillers were planted into plastic grow bags containing potting mix and pruned to be of equal height. […] The increase in root biomass was quantified by washing the roots under running water then removing the attached above ground portion (leaves and stems) and drying the roots at 65° C. for 48 hr then weighing the dry weights (Table 2).
An equal number (typically 4-10) of tillers were taken from WT and ryegrass plants transformed with Arabidopsis PPD under one of three root promoters. Tillers were planted into plastic grow bags containing potting mix and pruned to be of equal height. […] The increase in root biomass was quantified by washing the roots under running water then removing the attached above ground portion (leaves and stems) and drying the roots at 65° C. for 48 hr then weighing the dry weights (Table 3 and Table 4)

Assay [5] concerns Δppd Arabidopsis plants. Description: Root biomass analysis of Arabidopsis transformants. The format is in vivo. The conditions noted are these: constitutive promoter, approximately 6 weeks in growth cabinet. How it is done: Seeds from WT and Δppd Arabidopsis plants transformed with T. repens PPD under a constitutive promoter were scarified and sown into potting mix. […] The increase in root biomass was quantified by washing the roots under running water then the attached above ground portion (leaves and stems) was removed and the roots dried at 65° C. for 48 hr then weighed.

As to “nYFP-PPD1: PPD1 with N-terminal fusion of Venus aa 1-173 for BiFC”, in assay [1], the “BiFC interaction with BZR1” value is listed as “no interaction was observed”.
On to `CC(C)(C)[C@@H](O)[C@@H](Cc1ccc(Cl)cc1)n1cncn1` (racemic) [PAC, paclobutrazol], for which the hypocotyl length result in assay [2] (PPD-OX seedlings, PAC beyond 0.1 μM) is recorded as “decrease in hypocotyl length”; in assay [2] (PPD-OX seedlings, PAC up to 0.1 μM) it was “relatively insensitive”. The hypocotyl elongation entry was “dose dependent decrease of hypocotyl elongation” in assay [2] (wild type seedlings, 0 to 10 μM PAC) and “larger reduction in hypocotyl elongation” in assay [2] (Δppd seedlings, 0 to 10 μM PAC, compared with wild type).
Turning to `C=C1C[C@]23C[C@@]1(O)CC[C@H]2[C@@]12C=C[C@H](O)[C@@](C)(C(=O)O1)[C@H]2[C@@H]3C(=O)O` [GA, gibberellic acid], the hypocotyl elongation result is recorded as “increased hypocotyl elongation” in assay [2] (PPD-OX seedlings, 1 μM GA, 5 days); “hypersensitive elongation” in assay [2] (PPD-OX seedlings, up to 10 μM GA); “elongation of the WT hypocotyl occurred in a dose dependent manner” in assay [2] (WT seedlings, 5-50 μM GA, 5 days); “did not promote elongation” in assay [2] (wild type (WT) seedlings, 1 μM GA, 5 days); “increased hypocotyl elongation” in assay [2] (Δppd seedlings, 1 μM GA, 5 days); “hypersensitive elongation” in assay [2] (Δppd seedlings, up to 5 μM GA).

B1: P. sitchensis PPD: Picea sitchensis PEAPOD protein, SEQ ID NO: 5 (protein, listed as Picea sitchensis)
chain: MRGGERAPGSRPSLDKPLEELTEEDIFQLTREDCRRYLKEKGMRRPSWNKSQAIQQVLSLKSLFESKPNQQSKKPSKHKPATLQFETARDSTFAQSSVSQEQSLGFSWSKEVLDKGTAERQRLCSDSQEAHEIPRLGSKPPQSNTEGKRCAHDGHGRKSAQPLVRLPANFKNDCSNRQSSHTSESQPDTLLRSDSFQQPTAQLTIFYAGMVNVYDDVPLDKA
With B1, the “PEAPOD functionality by complementation of Δppd mutant” value (shortened to “PEAPOD functionality … of Δppd mutant”) in assay [3] is recorded as “functionally equivalent”. Besides, the “root growth beyond the grow bag compared to WT plants” value in assay [4] (constitutive promoter) and in assay [4] (one of three root promoters) was “increase in root biomass/growth/length/branching” throughout.

B2: P. abies PPD: Picea abies PEAPOD protein, SEQ ID NO: 4 (protein)
chain: MRGGGGADRLPARANLEKPLEDLSHEDIMQLTREDCRRYLIEKGMRRPSWNKSQAIQQVLSLKKLFESGPNDEKRSAATNRPNPDENLKEAASVSLLYGSQPESPSVVFASKDSDTFNLEWLAKTELPVLASQPRHIAQQNVFLSSLSAQQSGAQLTIFYSGNVNVYDDVPAEKAQEIMLLAGSGNYPPSSTCQSTRNTQQNAVRAAYPSNPTNTPFIHGVGPPLATVASSSVMSSPIHKESPITRKASLQRFLEKRKDRSRGKLGAPTISKKPLLMGMFMHPSIVHRQYWTDTAKRKSGKPDIPASISPTRPPHTPRRTSSDEQLSARHARGDISAQGGSLHNSN
modifications: Picea abies
In the case of B2, the “root growth beyond the pot compared to WT plants” value in assay [5] is “increase in root biomass/growth/length/branching”.

B3: T. repens PPD: Trifolium repens PEAPOD protein, SEQ ID NO: 11 (protein, listed as Trifolium repens)
chain: MNGGSTVSFRSILDKPLNQLTEDDISQLTREDCRRFLKDKGMRRPSWNKSQAIQQVISLKALLEPTDDDLPAPVGVSSAIHHHHHHHPQPPQRNLNEAPVKGSDLDDTGFHTAEDLNKSTSTAVEIPTETNDANVVKSSGGCVASGSFGQMTIFYCGKVNVYDGVSPDKARSIMQLAACPSSFPQDNLLNKNAAVWASPCNIPIDKDVLFPNDTAILQVAQTDKMVEYPLQYREKGSIARDADVEGQASRNASLQRYREKRKDRGRSKGNKLTGITSSNFEMYLNLPVKLHASNGNSSRSSTDSPPQPRLPLVSGGSAENQPKVTLPIDLNDKDVQEC
Regarding B3, the “PEAPOD functionality … of Δppd mutant” value in assay [3] was “functionally equivalent”. In addition, the “root growth beyond the pot compared to WT plants” value in assay [5] was “increase in root biomass/growth/length/branching”. Further, the “root growth beyond the grow bag compared to WT plants” value in assay [4] (constitutive promoter) and in assay [4] (one of three root promoters) was “increase in root biomass/growth/length/branching” in each case.

B4: A. trichopoda PPD: Amborella trichopoda PEAPOD protein, SEQ ID NO: 12 (protein, listed as Amborella trichopoda)
chain: MTAGDGSIRSILDKPLEELTEEDISQLTREDCRRYLKEKGMRRPSWNKYQAIQQVLSLKGLLEGKPCDDNSDVFSHRSPITVIPNVGSMREKEKAVNIADPEISGSHQPNFRREIHETTRERALPASDWPPSQEPVSQMTIFYAGAVNVYNDIPEDKVQAIIYLAGKSDSLQQTNVIRTGPDQCIASAASPSLNDLHSRRIHPTSNITTSQSLRVATSLPVGPHSEVPKTRKTSVQRFLEKRKDRGRLKGTLASGGSSKRGSSCLELYATSRLKSEGVATTTTQSNMNNVVVSPSNPRMPLNPGSCSWVEN
With B4, the “PEAPOD functionality … of Δppd mutant” value in assay [3] is reported as “functionally equivalent”. Moreover, in assay [5], the “root growth beyond the pot compared to WT plants” value is reported as “increase in root biomass/growth/length/branching”. The “root growth beyond the grow bag compared to WT plants” value in assay [4] (constitutive promoter) and in assay [4] (one of three root promoters) was “increase in root biomass/growth/length/branching” each time.
